Data from publication PMC3978073, “Flexibility of the Linker between the Domains of DNA Methyltransferase SsoII Revealed by Small-Angle X-Ray Scattering: Implications for Transcription Regulation in SsoII Restriction–Modification Syste”.

Target: T1, M.SsoII (C5-DNA methyltransferase SsoII) (Shigella sonnei, UniProt P34879 1-379)
T1 sequence: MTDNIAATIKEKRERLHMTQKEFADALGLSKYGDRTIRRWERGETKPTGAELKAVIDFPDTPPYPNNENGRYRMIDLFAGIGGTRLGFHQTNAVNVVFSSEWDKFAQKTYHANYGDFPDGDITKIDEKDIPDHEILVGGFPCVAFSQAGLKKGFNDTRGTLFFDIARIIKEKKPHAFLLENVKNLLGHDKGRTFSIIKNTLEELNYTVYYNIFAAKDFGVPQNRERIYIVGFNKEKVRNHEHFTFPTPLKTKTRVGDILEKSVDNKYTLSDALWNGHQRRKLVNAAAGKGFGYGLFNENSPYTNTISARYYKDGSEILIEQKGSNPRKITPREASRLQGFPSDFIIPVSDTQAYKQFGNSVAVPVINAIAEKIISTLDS
Assay: EMSA (native PAGE, EtBr and Coomassie stain); AdoHcy; M.SsoII:AdoHcy:DNA 1:2:1; Complex formation: 18 mM Tris-HCl, 136 mM NaCl, 3.5 mM beta-mercaptoethanol, 10% (w/v) glycerol, pH 8.0, with AdoHcy; temperature not stated; 7% native PAGE
Details: protein: recombinant; (HisTrap purified; tag not described); blunt

B1: 15met (dsDNA)
DNA 1: AGAGCCAGGAACCGA
DNA 2: TCGGTTCCTGGCTCT
B1: binds.
